Test results as given in US20200317817A1 (XOMA US, published 2020).

Columns and labels:
[1] = target: T1, human PTH1R on Saos-2 cells (endogenous) (human, UniProt Q03431 27-593); assay: cell-based or functional assay
T1 sequence (looked up): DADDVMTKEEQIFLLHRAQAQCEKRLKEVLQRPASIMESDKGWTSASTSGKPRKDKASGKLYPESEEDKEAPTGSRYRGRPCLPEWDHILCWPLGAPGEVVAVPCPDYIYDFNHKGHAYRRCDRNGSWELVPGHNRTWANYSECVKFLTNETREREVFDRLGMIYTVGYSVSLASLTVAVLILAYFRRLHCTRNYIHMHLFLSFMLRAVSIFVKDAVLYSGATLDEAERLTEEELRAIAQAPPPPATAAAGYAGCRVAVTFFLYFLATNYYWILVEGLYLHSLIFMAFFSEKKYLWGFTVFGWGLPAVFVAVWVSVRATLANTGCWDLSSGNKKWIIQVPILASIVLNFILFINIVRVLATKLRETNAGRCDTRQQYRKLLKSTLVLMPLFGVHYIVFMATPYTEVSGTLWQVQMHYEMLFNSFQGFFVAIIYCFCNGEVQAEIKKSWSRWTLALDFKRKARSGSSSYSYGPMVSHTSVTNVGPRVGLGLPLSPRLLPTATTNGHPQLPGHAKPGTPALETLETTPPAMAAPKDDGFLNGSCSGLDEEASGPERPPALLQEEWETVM

[2] = target: T2, rat PTH1R on UMR106 cells (rat, UniProt P25961 27-591); assay: cell-based or functional assay
T2 sequence (looked up): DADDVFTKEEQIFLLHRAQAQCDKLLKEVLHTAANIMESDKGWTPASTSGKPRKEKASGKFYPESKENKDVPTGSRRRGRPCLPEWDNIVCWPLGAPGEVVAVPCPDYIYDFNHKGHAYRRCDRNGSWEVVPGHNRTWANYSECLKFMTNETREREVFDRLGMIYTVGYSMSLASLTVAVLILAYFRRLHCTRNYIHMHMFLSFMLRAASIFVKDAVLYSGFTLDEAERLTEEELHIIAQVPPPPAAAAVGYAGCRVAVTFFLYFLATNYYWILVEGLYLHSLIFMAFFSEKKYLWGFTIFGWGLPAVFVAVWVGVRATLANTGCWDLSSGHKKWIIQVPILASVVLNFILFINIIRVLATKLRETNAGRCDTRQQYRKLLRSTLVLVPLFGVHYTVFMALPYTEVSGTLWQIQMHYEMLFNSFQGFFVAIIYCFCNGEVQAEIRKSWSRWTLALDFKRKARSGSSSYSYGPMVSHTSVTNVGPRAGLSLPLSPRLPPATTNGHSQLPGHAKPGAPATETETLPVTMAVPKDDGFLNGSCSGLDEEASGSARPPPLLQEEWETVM

[3] = target: T3, human PTH1R overexpressed on Saos-2 cells (human, UniProt Q03431 27-593); assay: flow cytometry on Saos-2 cells overexpressing human PTH1R, in the presence of 1 uM PTH, PE anti-human IgG
T3 construct: whole, on cells; also called Saos-2 human PTH1R cells
T3 sequence (looked up): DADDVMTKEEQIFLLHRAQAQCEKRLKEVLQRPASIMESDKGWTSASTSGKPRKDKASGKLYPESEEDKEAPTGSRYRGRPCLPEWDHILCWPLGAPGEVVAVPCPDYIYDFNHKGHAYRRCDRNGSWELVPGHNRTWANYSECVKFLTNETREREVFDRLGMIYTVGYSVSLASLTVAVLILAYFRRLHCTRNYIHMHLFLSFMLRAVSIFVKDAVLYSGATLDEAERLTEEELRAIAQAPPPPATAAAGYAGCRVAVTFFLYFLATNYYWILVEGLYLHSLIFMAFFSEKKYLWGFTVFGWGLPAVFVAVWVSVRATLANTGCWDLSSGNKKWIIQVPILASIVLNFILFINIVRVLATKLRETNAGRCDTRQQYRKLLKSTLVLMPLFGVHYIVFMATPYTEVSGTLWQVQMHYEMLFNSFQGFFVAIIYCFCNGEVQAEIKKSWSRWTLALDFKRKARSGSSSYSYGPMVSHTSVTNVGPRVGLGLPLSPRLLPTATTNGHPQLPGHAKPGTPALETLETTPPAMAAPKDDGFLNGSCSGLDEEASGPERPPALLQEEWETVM

[4] = target: T4, human PTH2R overexpressed on CHO cells (human, UniProt P49190 25-550); assay: flow cytometry on CHO cells overexpressing human PTH2R, 1 hr at 4 C, APC anti-human IgG
T4 construct: whole, on cells; also called CHO human PTH2R
T4 sequence (P49190 25-550): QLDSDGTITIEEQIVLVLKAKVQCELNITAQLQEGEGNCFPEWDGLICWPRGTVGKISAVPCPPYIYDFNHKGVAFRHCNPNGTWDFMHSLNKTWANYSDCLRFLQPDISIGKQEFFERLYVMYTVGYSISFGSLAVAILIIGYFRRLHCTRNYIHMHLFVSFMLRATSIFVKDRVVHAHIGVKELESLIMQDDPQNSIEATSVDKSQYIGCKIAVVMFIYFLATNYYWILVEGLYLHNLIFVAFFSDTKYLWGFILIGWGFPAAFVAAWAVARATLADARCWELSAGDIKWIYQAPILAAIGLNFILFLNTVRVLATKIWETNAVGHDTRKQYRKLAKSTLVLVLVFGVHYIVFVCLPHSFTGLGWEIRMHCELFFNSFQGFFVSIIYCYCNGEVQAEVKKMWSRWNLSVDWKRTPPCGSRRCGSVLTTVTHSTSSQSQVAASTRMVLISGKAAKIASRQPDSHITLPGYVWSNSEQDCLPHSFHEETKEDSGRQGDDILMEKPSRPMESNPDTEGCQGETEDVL
Procedure: Increasing concentrations of anti-PTH1R antibodies were added to CHO cells overexpressing human PTH2R and incubated for 1 hr at 4° C. (FIG. 8). Cells were washed twice with FACS Buffer and antibody binding was detected with anti-human IgG APC. […] Anti-KLH.G2 was used a negative control for binding.
PTH2R has a 51% homology to PTH1R. […] Following two washes, cells were incubated with Allophycocyanin (APC) AffiniPure F(ab′)₂ Fragment Goat Anti-Human IgG (H+L) (Jackson ImmunoResearch, West Grove, Pa.) for 20 minutes at 4° C. Cells were washed twice and resuspended in FACS Buffer. Samples were acquired using BD Cytometer (BD Biosciences, San Jose, Calif.) and data were analyzed using FlowJo (FlowJo, LLC, Ashland, Oreg.) and Prism (GraphPad Software, La Jolla, Calif.). […] Anti-KLH.G2 was used a negative control for binding.

[5] = target: T3, human PTH1R overexpressed on Saos-2 …; assay: flow cytometry on Saos-2 cells overexpressing human PTH1R, antibody alone, PE anti-human IgG
[6] = target: T3, human PTH1R overexpressed on Saos-2 …; assay: flow cytometry on Saos-2 cells overexpressing human PTH1R, in the presence of 3 uM PTHrP, PE anti-human IgG
Source text: Antibody binding was detected with R-Phycoerythrin anti-human IgG.

B1: XPA.85.329 (antibody, V domains shown)
VH: QMQLVQSGAEVKKPGSSVKVSCKASGGTFSSYAISWVRQAPGQGLEWMGGIIPIFGTANYAQKFQGRVTITADESTSTAYMELSSLRSEDTAVYYCARGYVVARLWGQGTLVTVSS
VL: DIVMTQTPLSLSVTPGQPASISCKSSQSLLHIDGLTYLYWYLQKPGQPPQLLIYEVSHRFSGVSDKFSGSGSGTDFTLTISRVEAEDVGVYYCMQSLHLPITFGQGTRLEIK
notes: IgG; also called Ab329; XPA.329
With B1 the “% inhibition of cAMP accumulation at 1 µM PTH(1-34), 267 nM IgG” value [1] was 79%, the “% inhibition of cAMP accumulation at 1 µM PTHrP(1-34), 267 nM IgG” value [1] was 90% and the “% inhibition of cAMP accumulation at 1 µM PTH(1-34), 267 nM IgG” value [2] was 50%. For the same binder, the “% inhibition of cAMP accumulation at 1 µM PTHrP(1-34), 267 nM IgG” value [2] was 41%, the EC50 [3] was 35.3 nM and the binding result [4] was “no binding (tested: about 160 nM)”. The EC50 [5] was 7.61 nM and the EC50 [6] was 656 nM.
